# According to PMC3933668, “The phzA2-G2 Transcript Exhibits Direct RsmA-Mediated Activation in Pseudomonas aeruginosa M18”:
# Tests used:
# RsmA [1] = molecular target: T1, RsmA (Pseudomonas aeruginosa M18, UniProt O69078 1-61); experiment: SPR; biotin-RNA on SA chip; 200 mM NaCl, 20 mM Tris-HCl pH 8.0, 1 mM EDTA, 1 mM DTT; 25 C; EMSA: 200 mM KCl, 100 mM HEPES pH 7.3, 10 mM MgCl2, 2 ug tRNA, 5% glycerol, 10 mM DTT, room temp 30 min, 1 nM RNA; SPR: 200 mM NaCl, 20 mM Tris-HCl pH 8.0, 1 mM EDTA, 1 mM DTT, 25 C; details: protein: recombinant; tags: C-terminal His tag; chain copies: 2; label: 3' biotin
# RsmA [2] = molecular target: T1, RsmA; experiment: EMSA; RsmA 0-400 nM; EMSA: 200 mM KCl, 100 mM HEPES pH 7.3, 10 mM MgCl2, 2 ug tRNA, 5% glycerol, 10 mM DTT, room temp 30 min, 1 nM RNA; SPR: 200 mM NaCl, 20 mM Tris-HCl pH 8.0, 1 mM EDTA, 1 mM DTT, 25 C; details: protein: recombinant; tags: C-terminal His tag; chain copies: 2; label: 3' biotin
# T1 sequence (O69078 whole entry): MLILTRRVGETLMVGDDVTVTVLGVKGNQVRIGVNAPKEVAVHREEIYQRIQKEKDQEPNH
Binder,Kd (RsmA [1]) [nM],binding result (RsmA [2])
UCUUCUUUCCGGUAUGGAUGCCAGUCGAUUC (ssRNA) [phz2-S3],54.5,
UCUUCUUUCCGGUAUUUCUGCCAGUCGAUUC (ssRNA) [phz2-S3M],,no binding
GGCAAUUCGGCAUUAGUUGAAACUUUGGAGACGCUCCGAA (ssRNA) [phz2-S1],,no binding
GGGCAACUUUUGCCCGGAAAAAGCUUCACGGCAAUUUCUC (ssRNA) [phz2-S2],,no binding
